# Laboratory results published in US7812117B2, “Vasostatin as marrow protectant” (The United States of America as represented by the …, priority 1998, dated 2010).
# Where two headings read alike, the source gives them in different places.
# B1: vaso: N-terminal domain of calreticulin (amino acids 1-180, SEQ ID NO:3); given as fusion protein with maltose binding protein, MBP-vaso (protein)
# chain: EPAVYFKEQFLDGDGWTSRWIESKHKSDFGKFVLSSGKFYGDEEKDKGLQTSQDARFYALSASFEPFSNKGQTLVVQFTVKHEQNIDCGGGYVKLFPNSLDQTDMHGDSEYNIMFGPDICGPGTKKVHVIFNYKGKNVLINKDIRCKDDEFTHLYTLIVRPDNTYEVKIDNSQVESGSLE
# modifications: Vasostatin
# Tests used:
# [1] = tested on: peripheral blood white cells
# Procedure: Mice (C57BL/B6, females, 7.5 weeks old) were treated for 1 week with daily inoculations of vaso (300 μg/mouse) or buffer alone. On day 8, the mice received cytoxan (1 or 2 mg/mouse) and continued daily inoculation with buffer or vaso. Peripheral blood white cell counts were measured on day 5 after administration of cytoxan.
# C57BL6J mice (7 weeks of age) were first treated for 7 days daily with either buffer (100 μl s.c.) or vaso (300 μg/mouse in 100 μl of buffer s.c.). On day 8, groups of mice (n=6) pretreated with either buffer or vaso were injected with cyclophosphamide (1.0 or 2.0 mg/mouse) and continued on daily inoculations of buffer (100 μl s.c.) or vaso (300 μg/mouse in 100 μl of buffer s.c.). Additional control mice were treated with only buffer or vaso for 5 additional days. On days 3 and 5 after cyclophosphamide injection, ½ of the mice were killed for evaluation of the bone marrow and peripheral blood.
# [2] = tested on: bone marrow cells
# Procedure: Groups of C57BL/6 mice (8 weeks of age) were treated as described in FIG. 14. FIG. 4A is a bar graph of the bone marrow cell count from mice treated for 16 days with either buffer alone (PBS, 100 μl/mouse/day s.c), Vaso (300 μg/mouse/day s.c) alone, Cytoxan (500 μg/mouse/day i.p.) alone, or vaso (300 μg/mouse/day s.c) plus Cytoxan (500 μg/mouse/day i.p.). Bone marrow was harvested on days 9 and 17 and the number of nucleated cells were counted. FIG. 4B is a bar graph of the bone marrow cell count from mice treated with for 11 days with either buffer alone (PBS, 100 μl/mouse/day s.c), Vaso (300 μg/mouse/day s.c) alone, Cytoxan (250 μg/mouse/day i.p.)×11 days plus Cytoxan 2 mg/mouse i.p. on day 11, or Cytoxan ([…] s.c, days 1-16). Bone marrow cell counts were obtained on day 17. FIG. 4C is a bar graph of peripheral blood white cells counts (WBC) on day 17 from mice from the same treatment groups described in B. […]
# In addition, rather than treating the mice with vaso prior to toxin exposure as described above, mice were simultaneously inoculated with cyclophosphamide and vaso. Thus, groups of mice (n=6) received either buffer alone (100 μl s.c) daily for 16 days, vaso (300 μg/mouse s.c) alone daily for 16 days, cyclophosphamide (500 μg/mouse i.p.) either alone or together with vaso (300 μg/mouse s.c) for 16 days. Other groups of mice (n=6) were inoculated daily for 11 days with cyclophosphamide (250 μg/mouse i.p.) either alone or together with vaso (300 μg/mouse s.c).
# [3] = tested on: bone marrow hematopoietic cells; assay: Radiation-induced toxicity in irradiated tumor-bearing BALB/c nu/nu mice (appearance, femural bone marrow histology); format: in vivo, mouse
# Procedure: This healthier appearance was due, in part, to the larger weight of mice treated with vaso compared to the controls.
# To examine this further, 7 week old BALB/c nu/nu mice were first irradiated with 400 rad. After 24 hr, the mice were incoculated s.c. with the human Burkitt lymphoma cell line CA46. One group of mice (n=12) was treated s.c. with the control protein maltose binding protein (MBP, 40 μg/mouse/day), whereas another group (n=12) was treated s.c. with MBP-vaso (60 μg/mouse/day). Some of the mice from each group were killed on day 15, whereas the other mice were kept for up to 2.5 months.
# [4] = tested on: murine Lin- bone marrow cells enriched with hematopoietic progenitors; assay: Proliferation of lineage-negative bone marrow population enriched for hematopoietic progenitors; format: cell-based, mouse
# Procedure: FIG. 11 is a set of two bar graphs showing the proliferative responses of unseparated (FIG. 11A) and purified (FIG. 11B) bone marrow cell populations in response to vaso. Bone marrow cell populations, obtained from the femural cavities of C57BL/6NCR mice (9 weeks of age) were either used as such or were further purified by negative selection as lineage negative (CD5, CD45R, CD11b, Gr-1 and TER119) cells by magnetic cell depletion. Both cell populations were incubated (0.5×10^6 cells/ml) in culture medium supplemented with IL-3 (20 ng/ml) with or without vaso (10 μg/ml). Cell proliferation was measured by ^3H thymidine incorporation during the final 22 hr of a 4, 5 or 6-day (D) culture. Data shown reflects the mean of triplicate cultures.
# The examples described above utilized unpurified populations of murine bone marrow cells derived from the femur. To characterize the cell or cells within the bone marrow cell population that are targets of stimulation by vaso, cell separation experiments were performed. […]
# The effects of vaso were tested on this cell population that is enriched with murine hematopoietic cells, and compared with unseparated bone marrow populations. […] On days 4 and 5, cell proliferation was measured. […]
# [5] = tested on: murine bone marrow cells
Molecule,"peripheral blood white cell counts on day 5 after cyclophosphamide ([1]; cyclophosphamide 2.0 or 1.0 mg/mouse alone, vs buffer or vaso alone controls)","bone marrow cell counts on day 17 ([2]; cyclophosphamide 250 μg/mouse daily for 11 days then single 2 mg/mouse injection on day 12, alone)","bone marrow cell counts on day 9 ([2]; cytoxan 500 μg/mouse/day i.p. alone, vs PBS controls)","bone marrow cell counts on day 17 ([2]; cytoxan 500 μg/mouse/day i.p. for 16 days alone, vs PBS controls)","reduction in peripheral blood white cell counts caused by cyclophosphamide, day 5 ([1]; cyclophosphamide 2.0 or 1.0 mg/mouse with vaso 300 μg/mouse/day)",bone marrow cell counts on day 17 ([2]; Vaso 300 μg/mouse/day s.c. for 16 days with cyclophosphamide 250 μg/mouse daily for 11 days then 2 mg/mouse on day 12),bone marrow cell count on days 9 and 17 ([2]; cyclophosphamide 500 μg/mouse/day i.p. plus vasostatin 300 μg/mouse/day s.c.),"appearance of irradiated mice ([3]; BALB/c nu/nu mice, 400-450 rad, injected s.c. with human tumor cell lines, vs buffer control)",femural bone marrow histology after 400 rad total body irradiation ([3]; MBP 40 μg/mouse/day or MBP-vaso 60 μg/mouse/day s.c. after irradiation),cell growth of murine bone marrow cells enriched for hematopoietic cells by negative selection ([4]; IL-3 alone or IL-3 together with IL-6 and Stem Cell Factor),"increase in cell proliferation on day 5 ([4]; enriched marrow, vaso 10 μg/ml, IL-3 20 ng/ml)",bone marrow cell proliferation induced by IL-3 at the highest dose of cisplatinum [5]
"O=P1(N(CCCl)CCCl)NCCCO1 (stereo not drawn) [cyclophosphamide, reference compound]",significantly reduced,considerable reduction of bone marrow cell counts,did not reduce bone marrow cell counts on day 9,reduced them on day 17,–,–,–,–,–,–,–,–
B1,–,–,–,–,alleviated,prevented the occurrence of a reduction in bone marrow cell counts,higher than in the control mice and in the mice treated with cytoxan,appeared healthier,can protect the hematopoietic tissue from radiation-induced toxicity,similarly stimulated cell growth,3.3 fold,minimal
